Test [1] has as its target Man9-V3 glycopeptide. In words: BLI.
In test [2] the target is Man9-V3 glycopeptide (HIV-1 (clade B JRFL mini-V3)). In words: BLI, biotinylated peptide on streptavidin sensor, bivalent avidity model.

Bounds are passed on as bounds.

B1: DH270.IA3 (protein)
chain 1: QVQLVQSGAEVKKPGASVKVSCKASGYTFTDYYIHWVRQAPGQGLEWMAWINPTTGRTNYARKFQGRVTMTRDTSISTAYMELRRLRSDDTAVYYCARGGWIGLYVDYSGYPNFDSWGQGTLVTVSS
chain 2: QSALTQPASVSGSPGQSITISCTGTSYDVGSYNLVSWYQQHPGKAPKLMIYEVSKWPSGVSNRFSGSKSGNTASLTISGLQAEDEADYYCCSYAGSSTVIFGGGTKLTVL
Molecule B1 showed a Kd in test [1] of over 10 µM.

B2: DH270.IA2 (protein)
chain 1: QVQLVQSGAEMKKPGASVKVSCKASGYTFTDYYIHWVRQAPGQGLEWMGWINPNTGRTNYAQKFQGRVTMTRDTSISTAYMELSRLTSDDTAVYYCATGGWIGLYYDSSGYPNFDYWGQGTLVTVSS
chain 2: QSALTQPASVSGSPGQSITISCTGTSYDVGSYNLVSWYQQHPGKAPKYMIYEVNKRPSGVSNRFSGSKSGNTASLTISGLQAEDEADYYCCSYAGSSTVIFGGGTKLTVL
With B2, the Kd in test [1] was over 10 µM.

B3: DH270.IA1 (protein)
chain 1: QVQLVQSGAEVKKPGASVKVSCKASGYTFTDYYIHWVRQAPGQGLEWMGWINPNTGRTNYAQKFQGRVIMTRDTSISTAYMELSRLRSDDTAVYYCARGGWIGLYYDSSGYPNFDYWGQGTLVTVSS
chain 2: QSALTQPASVSGSPGQSITISCTGTSYDVGSYNLVSWYQQHPGKAPKLMIYEVSKRPSGVSNRFSGSKSGNTASLTISGLQAEDEADYYCCSYAGSSTVIFGGGTKLTVL
In turn, B3 registered a Kd in test [1] of 3.29 µM.

B4: DH270.6 (antibody, V domains shown)
VH: QVQLVQSGAQMKNPGASVKVSCAPSGYTFTDFYIHWLRQAPGQGLQWMGWMNPQTGRTNTARNFQGRVIMTRDTSIGTAYMELRSLTSDDTAIYYCTTGGWISLYYDSSYYPNFDHWGQGTLLTVSS
VL: TSLLTQPASVSGSPGQSITISCTGTKYDVGSHDLVSWYQQYPGKVPKYMIYEVNKRPSGVSNRFSGSKSGNTASLTISGLRAEDEADYYCCSFGGSATVVCGGGTKVTVL
For B4, the Kd in test [2] was 188 nM.

The values above are taken from patent US20200113997A1.
